Measurements taken from paper PMC314469, “Protein Interaction Networks by Proteome Peptide Scanning” (PLoS Biology, 2004).

T1: Yfr024 SH3 (LSB3_YEAST), P43603
T1 chain: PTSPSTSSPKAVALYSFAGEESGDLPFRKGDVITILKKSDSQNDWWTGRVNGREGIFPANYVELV

T2: Boi1 SH3 (BOI1_YEAST), P38041
T2 chain: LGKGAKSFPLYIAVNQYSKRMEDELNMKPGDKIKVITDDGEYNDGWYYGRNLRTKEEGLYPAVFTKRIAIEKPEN

T3: Yhr016c SH3 (YSC84_YEAST), P32793
T3 chain: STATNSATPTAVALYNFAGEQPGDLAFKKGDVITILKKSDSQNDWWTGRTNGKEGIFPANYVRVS

T4: Rvs167 SH3 (RV167_YEAST), P39743
T4 chain: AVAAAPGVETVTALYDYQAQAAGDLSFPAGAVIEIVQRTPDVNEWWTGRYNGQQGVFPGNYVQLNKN

T5: Boi2 SH3 (BOI2_YEAST), P39969
T5 chain: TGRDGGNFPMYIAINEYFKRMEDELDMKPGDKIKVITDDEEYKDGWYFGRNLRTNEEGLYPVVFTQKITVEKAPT


Assays:
Assay in all cases: SPOT array
[1] = target: T1, Yfr024 SH3 (LSB3_YEAST), P43603
[2] = target: T2, Boi1 SH3 (BOI1_YEAST), P38041
[3] = target: T3, Yhr016c SH3 (YSC84_YEAST), P32793
[4] = target: T4, Rvs167 SH3 (RV167_YEAST), P39743
[5] = target: T5, Boi2 SH3 (BOI2_YEAST), P39969

Binder	normalised SPOT signal, Boehringer light units (BLU); mean over the file's lines of this peptide [1]	normalised SPOT signal, Boehringer light units (BLU); mean over the file's lines of this peptide [2]	normalised SPOT signal, Boehringer light units (BLU); mean over the file's lines of this peptide [3]	normalised SPOT signal, Boehringer light units (BLU); mean over the file's lines of this peptide [4]	normalised SPOT signal, Boehringer light units (BLU); mean over the file's lines of this peptide [5]
LTSPFEPPKPKTKH [YJR064W 272-285]	82.2	188	149	8.1	33.7
LWQPVDPSREDLVI [YLR301W 128-141]	179	49.2	139	0.8	51.5
LRKPSAPKRMSSIS [YMR086W 52-65]	2940	119	270	276	77.6
LRLPEIPPKGDFDV [YFL036W 1327-1340]	322	1.5	124	28.8	78.1
LSSPSLPPKVNATN [YEL042W 325-338]	3210	113	92.2	34.7	22
LYKPGMPPRPHFIT [YNL045W 494-507]	899	25.6	326	34.7	60.6
LSKPSKPLKEIRFD [YAR003W 101-114]	586	233	227	82.7	63
LVQPVVPDKVFSFR [YER036C 368-381]	311	124	370	63.5	52
LSSPNVPGKPQVAY [YKL216W 131-144]	201	67.9	77.3	1.5	43.1
LRKPRAPMRNVIIT [YER141W 449-462]	3330	197	257	229	90.5
LRSPNTPRRLRKTL [YDR545W 312-325]	21100	236	3240	2540	322
MAAPPVPPKQSQED [YPL084W 790-803]	4570	84.2	279	52.4	40.6
LVQPNVPEKHNMST [YHL002W 144-157]	94.6	52.4	107	44.1	48.3
LVIPSTPSKKSKYS [YOR315W 23-36]	627	94.8	95.7	32.2	37.5

Further lines, results first:

normalised SPOT signal, Boehringer light units (BLU); mean over the file's lines of this peptide [1]	normalised SPOT signal, Boehringer light units (BLU); mean over the file's lines of this peptide [2]	normalised SPOT signal, Boehringer light units (BLU); mean over the file's lines of this peptide [3]	normalised SPOT signal, Boehringer light units (BLU); mean over the file's lines of this peptide [4]	normalised SPOT signal, Boehringer light units (BLU); mean over the file's lines of this peptide [5]	Binder
1210	55.6	155	20.7	49	LRSPQNPNRMTAVI [YPL115C 235-248]
49.1	126	69.6	78.8	74.6	LVTPEEPAKNKSER [YDL129W 13-26]
227	547	40.3	96.1	25.9	LTSPKNPIKSVTKF [YDR172W 569-582]
8010	825	1090	947	234	LRRPIFPGRDYRHQ [YBL016W 218-231]
27100	197	2000	252	44.9	LSLPRLPNKHHWPL [YAR068W 116-129]
174	18.3	144	30.6	37.9	LSTPSAPAKINNYS [YDR109C 605-618]
36.6	5.9	297	17.2	41.5	LTLPFGPVKSIWLS [YGR227W 189-202]
561	63.1	200	36.6	25.2	LWIPDDPSKARFLS [YJR152W 267-280]
